Activity data for two molecules are collected here from patent US20220348894, “DNA MODIFYING ENZYMES AND ACTIVE FRAGMENTS AND VARIANTS THEREOF AND METHODS OF USE” (LifeEDIT Therapeutics, Inc., published 2022).

Holding throughout (settings): tags: SV40 NLS, 3xFLAG, nucleoplasmin NLS
One data set has as its target LPG50172-nAPG07433.1 (synthetic). The experiment in a line: cell_activity; mutated reads, HEK293FT. The protocol: (§1) 500 ng of plasmid comprising an expression cassette comprising a coding sequence for a fusion protein shown in Table 10 and 500 ng of plasmid comprising an expression cassette encoding for an sgRNA shown in Table 11 were co-transfected into HEK293FT cells at 75-90% confluency in 24-well plates using Lipofectamine 2000 reagent (Life Technologies). Cells were then incubated at 37° C. for 72 h. Following incubation, genomic DNA was then extracted using NucleoSpin 96 Tissue (Macherey-Nagel) following the manufacturer's protocol. The genomic region flanking the targeted genomic site was PCR amplified using the primers in Table 11 and products were purified using ZR-96 DNA Clean and Concentrator (Zymo Research) following the manufacturer's protocol. The purified PCR products underwent Next Generation Sequencing on Illumina MiSeq. Typically, 100,000 of 250 bp paired-end reads (2×100,000 reads) are generated per amplicon. The reads were analyzed using CRISPResso (Pinello, et al. 2016 Nature Biotech, 34:695-697) to calculate the rates of editing. Output alignments were analyzed for INDEL formation or introduction of specific adenine mutations.
(§2) The editing rate for adenines within or proximal to the target sequence is indicated. “A5” indicates, for example, an adenine at position 5 of the target sequence. The position of each nucleotide in the target sequence was determined by numbering the first nucleotide in the target sequence closest to the PAM (which is 3′ of the target for APG07433.1) as position 1, and the position number increases in the 5′ direction away from the PAM sequence. The tables also show which nucleotide the adenine was changed to, and at what rate.

For the next data set, the target named is LPG50154-nAPG07433.1 (synthetic). The data set can be described thus: cell_activity; mutated reads, HEK293FT. The protocol:
as §1, §2

The target of the next data set is LPG50153-nAPG07433.1 (synthetic). The data set can be described thus: cell_activity; mutated reads, HEK293FT. The method, then:
as §1, §2

A further data set addresses LPG50161-nAPG07433.1 (synthetic). The data set can be described thus: cell_activity; mutated reads, HEK293FT. The method, then:
as §1, §2

Another data set concerns the target LPG50180-nAPG07433.1 (synthetic). The data set can be described thus: cell_activity; mutated reads, HEK293FT. The method, then:
as §1, §2

For a further data set, the target named is LPG50148-nAPG07433.1 (synthetic). The experiment in a line: cell_activity; mutated reads, HEK293FT; PAM 3' of target. The method, then: as §1, §2
Another data set concerns the target APG08449-nAPG07433.1 (synthetic). The experiment in a line: cell_activity; A16>G editing, HEK293FT. The method, then: (§3) 500 ng of plasmid comprising an expression cassette comprising a coding sequence for a fusion protein for each deaminase described in Table 1 and 500 ng of plasmid comprising an expression cassette encoding an sgRNA shown in Table 2 were co-transfected into HEK293FT cells at 75-90% confluency in 24-well plates using Lipofectamine 2000 reagent (Life Technologies). Cells were then incubated at 37° C. for 72 h. Following incubation, genomic DNA was then extracted using NucleoSpin 96 Tissue (Macherey-Nagel) following the manufacturer's protocol. The genomic region flanking the targeted genomic site was PCR amplified using the primers in Table 2 and products were purified using ZR-96 DNA Clean and Concentrator (Zymo Research) following the manufacturer's protocol. The purified PCR products underwent Next Generation Sequencing on Illumina MiSeq. Typically, 100,000 of 250 bp paired-end reads (2×100,000 reads) are generated per amplicon. The reads were analyzed using CRISPResso (Pinello, et al. 2016 Nature Biotech, 34:695-697) to calculate the rates of editing. Output alignments were analyzed for INDEL formation or introduction of specific adenine mutations. Tables 3 through 7 show adenine base editing for each fusion protein comprising nAPG07433.1 and a deaminase from Table 1 and a guide RNA from Table 2. The deaminase component of each fusion protein is indicated. The editing rate for adenines within or proximal to the target sequence is indicated. “A5” indicates, for example, an adenine at position 5 of the target sequence. The position of each nucleotide in the target sequence was determined by numbering the first nucleotide in the target sequence closest to the PAM as position 1, and the position number increases in the […] away from the PAM sequence. The tables also show which nucleotide the adenine was changed to, and at what rate.

The target of another data set is APG03724-nAPG07433.1 (synthetic). The data set can be described thus: cell_activity; A16>G editing, HEK293FT. The method, then:
as §3

For the next data set, the target named is APG05174-nAPG07433.1 (synthetic). The data set can be described thus: cell_activity; A16>G editing, HEK293FT. The protocol:
as §3

The target in a further data set is APG09949-nAPG07433.1 (synthetic). The experiment in a line: cell_activity; A16>G editing, HEK293FT. The protocol: as §3
In a further data set the target is APG09102-nAPG07433.1 (synthetic). The data set can be described thus: cell_activity; A16>G editing, HEK293FT. The protocol:
as §3

A further data set deals with APG05723-nAPG07433.1 (synthetic). The experiment in a line: cell_activity; A16>G editing, HEK293FT. The protocol:
as §3

Another data set addresses APG06333-nAPG07433.1 (synthetic). The data set can be described thus: cell_activity; A16>G editing, HEK293FT. The method, then:
as §3

Another data set concerns the target APG06489-nAPG07433.1 (synthetic). The experiment in a line: cell_activity; A16>G editing, HEK293FT. The method, then: as §3
The next data set concerns the target APG08196-nAPG07433.1 (synthetic). The data set can be described thus: cell_activity; A16>G editing, HEK293FT. The method, then:
as §3

Chain of APG08196-nAPG07433.1 (synthetic) (chain, as listed by the source): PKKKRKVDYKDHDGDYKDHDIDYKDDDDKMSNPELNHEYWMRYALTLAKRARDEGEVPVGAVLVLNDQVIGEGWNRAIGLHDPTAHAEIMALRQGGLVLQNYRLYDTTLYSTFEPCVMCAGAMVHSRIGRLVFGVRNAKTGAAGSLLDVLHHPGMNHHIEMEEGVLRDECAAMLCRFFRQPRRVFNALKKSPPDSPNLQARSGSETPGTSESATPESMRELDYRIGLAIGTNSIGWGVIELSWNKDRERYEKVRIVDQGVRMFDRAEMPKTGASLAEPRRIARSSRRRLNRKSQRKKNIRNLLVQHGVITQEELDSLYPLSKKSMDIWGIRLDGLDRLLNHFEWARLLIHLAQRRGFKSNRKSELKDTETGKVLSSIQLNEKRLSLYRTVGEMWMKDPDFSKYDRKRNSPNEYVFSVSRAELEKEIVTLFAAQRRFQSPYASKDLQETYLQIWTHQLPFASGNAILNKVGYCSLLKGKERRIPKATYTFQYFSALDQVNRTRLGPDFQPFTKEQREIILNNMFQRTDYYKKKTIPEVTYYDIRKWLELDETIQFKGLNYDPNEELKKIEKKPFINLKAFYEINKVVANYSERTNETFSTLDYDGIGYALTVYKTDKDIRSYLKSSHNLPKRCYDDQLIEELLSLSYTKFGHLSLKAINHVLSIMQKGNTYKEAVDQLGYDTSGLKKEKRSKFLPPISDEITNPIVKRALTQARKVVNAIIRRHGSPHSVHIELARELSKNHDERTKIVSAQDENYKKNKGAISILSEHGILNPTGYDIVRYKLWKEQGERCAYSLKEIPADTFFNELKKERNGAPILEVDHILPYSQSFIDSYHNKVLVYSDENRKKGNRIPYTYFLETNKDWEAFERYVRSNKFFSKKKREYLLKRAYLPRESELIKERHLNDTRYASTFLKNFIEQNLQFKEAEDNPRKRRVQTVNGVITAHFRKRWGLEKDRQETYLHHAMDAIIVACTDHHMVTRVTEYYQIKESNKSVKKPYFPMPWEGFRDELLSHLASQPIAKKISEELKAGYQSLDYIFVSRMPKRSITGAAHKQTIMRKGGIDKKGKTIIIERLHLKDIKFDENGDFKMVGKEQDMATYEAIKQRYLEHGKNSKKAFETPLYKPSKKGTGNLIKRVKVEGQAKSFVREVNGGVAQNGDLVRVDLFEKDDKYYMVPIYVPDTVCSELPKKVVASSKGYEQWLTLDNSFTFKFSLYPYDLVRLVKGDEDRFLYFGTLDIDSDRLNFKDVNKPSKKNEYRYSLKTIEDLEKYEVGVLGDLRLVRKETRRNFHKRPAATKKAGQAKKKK
Chain of APG03724-nAPG07433.1 (synthetic) (chain, as listed by the source): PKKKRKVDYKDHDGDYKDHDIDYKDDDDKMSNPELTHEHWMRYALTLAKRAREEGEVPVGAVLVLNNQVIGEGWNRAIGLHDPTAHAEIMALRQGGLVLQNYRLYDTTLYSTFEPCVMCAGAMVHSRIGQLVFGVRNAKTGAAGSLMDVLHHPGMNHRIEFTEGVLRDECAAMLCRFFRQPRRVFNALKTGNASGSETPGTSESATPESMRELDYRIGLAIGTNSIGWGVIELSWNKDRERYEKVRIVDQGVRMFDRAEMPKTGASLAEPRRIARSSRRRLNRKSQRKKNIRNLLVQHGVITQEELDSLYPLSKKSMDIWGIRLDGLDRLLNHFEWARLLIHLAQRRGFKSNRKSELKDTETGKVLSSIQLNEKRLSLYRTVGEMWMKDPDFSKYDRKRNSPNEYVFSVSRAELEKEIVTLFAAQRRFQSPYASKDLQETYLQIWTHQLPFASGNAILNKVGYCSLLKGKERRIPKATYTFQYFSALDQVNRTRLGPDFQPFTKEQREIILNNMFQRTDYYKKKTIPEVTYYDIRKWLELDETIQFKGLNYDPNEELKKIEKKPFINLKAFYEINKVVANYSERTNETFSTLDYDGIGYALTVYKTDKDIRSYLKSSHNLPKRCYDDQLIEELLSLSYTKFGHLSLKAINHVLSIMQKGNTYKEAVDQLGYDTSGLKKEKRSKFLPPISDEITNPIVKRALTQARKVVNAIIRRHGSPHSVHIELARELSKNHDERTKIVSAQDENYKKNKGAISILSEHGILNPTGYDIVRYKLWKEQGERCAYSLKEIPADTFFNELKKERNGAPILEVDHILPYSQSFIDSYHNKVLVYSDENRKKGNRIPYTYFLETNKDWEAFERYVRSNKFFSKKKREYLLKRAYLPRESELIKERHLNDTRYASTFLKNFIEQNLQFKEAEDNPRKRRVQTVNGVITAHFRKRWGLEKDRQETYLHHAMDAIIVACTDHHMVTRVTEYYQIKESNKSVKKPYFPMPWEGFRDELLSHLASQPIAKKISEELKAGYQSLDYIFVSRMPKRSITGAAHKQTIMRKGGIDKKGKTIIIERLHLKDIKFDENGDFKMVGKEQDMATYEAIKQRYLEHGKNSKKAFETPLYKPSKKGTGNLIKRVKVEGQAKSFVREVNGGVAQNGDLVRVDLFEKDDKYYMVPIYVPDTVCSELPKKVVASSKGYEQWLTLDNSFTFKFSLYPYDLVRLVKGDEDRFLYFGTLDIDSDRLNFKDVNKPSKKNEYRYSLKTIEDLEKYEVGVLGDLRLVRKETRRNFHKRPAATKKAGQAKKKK
Chain of LPG50153-nAPG07433.1 (synthetic) (chain, as listed by the source): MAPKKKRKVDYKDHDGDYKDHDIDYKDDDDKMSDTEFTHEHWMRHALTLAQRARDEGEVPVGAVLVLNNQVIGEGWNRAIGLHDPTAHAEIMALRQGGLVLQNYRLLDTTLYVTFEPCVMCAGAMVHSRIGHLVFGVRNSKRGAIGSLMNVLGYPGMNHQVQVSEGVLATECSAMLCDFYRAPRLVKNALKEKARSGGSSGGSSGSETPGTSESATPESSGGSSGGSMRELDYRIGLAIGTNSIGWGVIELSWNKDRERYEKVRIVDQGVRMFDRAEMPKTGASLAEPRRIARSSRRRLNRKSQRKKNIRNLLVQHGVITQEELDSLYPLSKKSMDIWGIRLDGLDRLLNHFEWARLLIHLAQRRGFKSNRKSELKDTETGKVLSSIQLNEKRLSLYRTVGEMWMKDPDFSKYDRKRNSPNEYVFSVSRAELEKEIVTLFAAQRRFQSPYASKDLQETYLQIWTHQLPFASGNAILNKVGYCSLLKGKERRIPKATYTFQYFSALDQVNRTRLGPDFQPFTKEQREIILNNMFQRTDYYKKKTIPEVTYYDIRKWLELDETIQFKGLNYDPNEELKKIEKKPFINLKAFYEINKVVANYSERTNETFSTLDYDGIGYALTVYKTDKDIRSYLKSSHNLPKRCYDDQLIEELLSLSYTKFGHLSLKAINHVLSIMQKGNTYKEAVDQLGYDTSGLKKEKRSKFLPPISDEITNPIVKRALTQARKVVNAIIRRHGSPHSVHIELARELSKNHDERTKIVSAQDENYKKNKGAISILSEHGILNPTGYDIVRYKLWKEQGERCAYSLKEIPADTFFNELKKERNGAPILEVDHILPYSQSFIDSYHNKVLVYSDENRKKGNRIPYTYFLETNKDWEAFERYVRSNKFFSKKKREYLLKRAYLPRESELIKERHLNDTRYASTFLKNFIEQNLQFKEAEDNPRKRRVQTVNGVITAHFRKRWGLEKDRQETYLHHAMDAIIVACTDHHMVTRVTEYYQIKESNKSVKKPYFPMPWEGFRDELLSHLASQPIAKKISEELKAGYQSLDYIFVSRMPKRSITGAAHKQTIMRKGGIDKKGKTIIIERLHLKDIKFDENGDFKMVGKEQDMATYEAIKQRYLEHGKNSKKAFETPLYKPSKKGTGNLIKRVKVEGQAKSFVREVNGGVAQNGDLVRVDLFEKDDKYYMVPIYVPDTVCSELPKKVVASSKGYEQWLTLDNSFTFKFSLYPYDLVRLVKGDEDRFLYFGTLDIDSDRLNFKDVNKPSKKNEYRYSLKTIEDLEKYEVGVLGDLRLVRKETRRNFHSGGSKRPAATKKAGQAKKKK

B1: SGN001681 sgRNA ; SGN001681 target (ssRNA ; dsDNA)
RNA: CCGUGCCUUGACCUACCCUGGUCAUAGUUCCAUUAAAGCCAAAAGUGGCUUUGAUGUUUCUAUGAUAAGGGUUUCGACCCGUGGCGUCGGGGAUCGCCUGCCCAUUGAAAUGGGCUUCUCCCCAUUUAUU
DNA 1: CCGTGCCTTGACCTACCCTG
DNA 2: CAGGGTAGGTCAAGGCACGG
As to B1, the activity with LPG50172-nAPG07433.1 is 1.78%; with LPG50154-nAPG07433.1 it was 2.26%; with LPG50153-nAPG07433.1, 1.12%; with LPG50161-nAPG07433.1 it was 1.47%; in the data set with LPG50180-nAPG07433.1, 1.8%; with LPG50148-nAPG07433.1, 49.4%.

B2: SGN000186 sgRNA (Table 2) ; SGN000186 target (Table 2) (ssRNA ; dsDNA)
RNA: GGACAGUGCGCAUCUCCCUGGUCAUAGUUCCAUUAAAGCCAAAAGUGGCUUUGAUGUUUCUAUGAUAAGGGUUUCGACCCGUGGCGUCGGGGAUCGCCUGCCCAUUGAAAUGGGCUUCUCCCCAUUUAUU
DNA 1: GGACAGTGCGCATCTCCCTG
DNA 2: CAGGGAGATGCGCACTGTCC
In the case of B2, the activity is 5.3% with APG08449-nAPG07433.1; 4.1% with APG03724-nAPG07433.1; 3.2% with APG05174-nAPG07433.1; 3.4% with APG09949-nAPG07433.1; 6.2% with APG09102-nAPG07433.1; 1.9% in the data set with APG05723-nAPG07433.1. The figures for the activity with APG06333-nAPG07433.1, in the data set with APG06489-nAPG07433.1 and with APG08196-nAPG07433.1 were 4.2%, 2.5% and 3.3%, respectively.
